Results taken from article PMC7790537 (PLoS ONE, 2021).

The binders below were run against recombinant trimeric HA of A/New Caledonia/20/1999 (H1N1) (Influenza A virus A/New …, UniProt Q6WG00) (assay: cell-based or functional assay).

| Binder | HI activity, minimum HI concentration, NC20 virus | NI activity, EC50 (NI-ELLA), NC20 virus | NT activity, minimum virus-neutralizing concentration, NC20 virus |
| --- | --- | --- | --- |
| F11 IgA1 polymer (antibody, V domains shown) VH: QVQLVQSGAEVKRPGSSVRVSCRTSGGSFTSFAISWVRQAPGQGLEWMGRITRILGVPNYAQKFQGRVTITADMPTTTAYLDLTNLRSEDTAVYYCARDSGTSHGDFDYWGQGTLVTVSS VL: EIVLTQSPVTLSLSPGERATLSCRASQNVINSLVWYQQKPGQAPRLLIYGASNRATGIPARFRGSGSGTDFTLTIDSLEPEDIAVYYCQQRGTWLWSFGQGTKVEIK | 62.5 µg/mL | 0.106 µg/mL | 15.8 µg/mL |
| F11 IgA1 monomer (antibody, V domains shown) VH: QVQLVQSGAEVKRPGSSVRVSCRTSGGSFTSFAISWVRQAPGQGLEWMGRITRILGVPNYAQKFQGRVTITADMPTTTAYLDLTNLRSEDTAVYYCARDSGTSHGDFDYWGQGTLVTVSS VL: EIVLTQSPVTLSLSPGERATLSCRASQNVINSLVWYQQKPGQAPRLLIYGASNRATGIPARFRGSGSGTDFTLTIDSLEPEDIAVYYCQQRGTWLWSFGQGTKVEIK | 62.5 µg/mL | 0.148 µg/mL | 28.1 µg/mL |
| F11 IgA2m2 monomer (antibody, V domains shown) VH: QVQLVQSGAEVKRPGSSVRVSCRTSGGSFTSFAISWVRQAPGQGLEWMGRITRILGVPNYAQKFQGRVTITADMPTTTAYLDLTNLRSEDTAVYYCARDSGTSHGDFDYWGQGTLVTVSS VL: EIVLTQSPVTLSLSPGERATLSCRASQNVINSLVWYQQKPGQAPRLLIYGASNRATGIPARFRGSGSGTDFTLTIDSLEPEDIAVYYCQQRGTWLWSFGQGTKVEIK | 31.3 µg/mL | 0.0617 µg/mL |  |
| F11 IgA2m2 polymer (antibody, V domains shown) VH: QVQLVQSGAEVKRPGSSVRVSCRTSGGSFTSFAISWVRQAPGQGLEWMGRITRILGVPNYAQKFQGRVTITADMPTTTAYLDLTNLRSEDTAVYYCARDSGTSHGDFDYWGQGTLVTVSS VL: EIVLTQSPVTLSLSPGERATLSCRASQNVINSLVWYQQKPGQAPRLLIYGASNRATGIPARFRGSGSGTDFTLTIDSLEPEDIAVYYCQQRGTWLWSFGQGTKVEIK |  | 0.0162 µg/mL | 5.57 µg/mL |
